Data on 2 molecules can be found in patent US20100227824A1 (SYMTHERA CANADA, published 2010).

Experiment [1] has as its target T1, Eotaxin 3 (CCL26) (UniProt Q9Y258 24-94).
T1 construct: Bought chemokine
T1 sequence (looked up): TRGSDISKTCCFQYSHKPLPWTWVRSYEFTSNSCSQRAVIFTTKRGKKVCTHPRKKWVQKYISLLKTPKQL
Briefly: micro-array, phage-presented peptide on printed CK. The protocol: (§1) (1) Printing: Chemokine (CK) solution (in water) was serially diluted with Print Reagent (GenTel BioSurfaces USA) to final concentrations of 50 μg and 25 μg/ml. BSA/BSA-Biotin control solutions (in water) were diluted with Print Reagent to 100 μg/ml. Amplified stock of M13 phage control (M13KEgIII Cloning Vector, New England Biolabs, Cat.No.E8101S) was stored in Tris Buffered Saline (TBS; pH7.5, 4° C.) and diluted with Print Reagent to the working titre (10^8 pfu/μl). An automated spotting robot (16 pin print tool, 0.4mm head; BioRobotics, UK) was used to print the CK/BSA control/M13 control, 5 repeats per sample (CK 25 μg/ml and 50 μg/ml; BSA 100 μg/ml; M13 20 μl), on PATH Protein Microarray Slides (GenTel, Prod.No.2-1005/-1025) at […], and 50-70% relative humidity. Printed micro-array slides were stored at Room Temperature (RT) or 4° C. for at least 24 h before use.
(§2) (2) Blocking: Block Buffer (500 μl/partition; PATHblock, GenTel, Prod.No.2-1014) was applied to the slide for 1 hour at room temp (RT). After removal of Block Buffer, the slide was air dried for 25 minutes;
(§3) (11) Analysis: Quantitative analysis of micro-array was performed by the SpotReader program of Niles Scientific (USA) and presented as Relative Fluorescence (RF) as a function of CK concentration. Micro-array readout (Cy3 fluorescence) was quantified to determine the relative binding affinities of a CBP for the CKs and by inference, the specificity of the CBP for binding to a CK.

The target in experiment [2] is T2, BCA-1 (CXCL13) (UniProt O43927 23-109).
T2 construct: Bought chemokine
T2 sequence (looked up): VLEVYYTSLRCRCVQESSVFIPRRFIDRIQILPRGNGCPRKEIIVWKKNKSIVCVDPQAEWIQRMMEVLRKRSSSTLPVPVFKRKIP
Briefly: micro-array, phage-presented peptide on printed CK. The protocol: as §1, §2, §3

A further experiment has as its target T3, Exodus-2 (CCL21) (UniProt O00585 24-134).
T3 construct: Bought chemokine
T3 sequence (looked up): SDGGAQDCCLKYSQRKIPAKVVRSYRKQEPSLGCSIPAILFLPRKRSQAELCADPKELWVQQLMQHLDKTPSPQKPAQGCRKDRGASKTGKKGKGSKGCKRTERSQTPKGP
The experiment can be described thus: micro-array, phage-presented peptide on printed CK. The method, then: as §1, §2, §3

For experiment [3], the target named is T4, TECK (CCL25) (UniProt O15444 24-150).
T4 construct: Bought chemokine
T4 sequence (looked up): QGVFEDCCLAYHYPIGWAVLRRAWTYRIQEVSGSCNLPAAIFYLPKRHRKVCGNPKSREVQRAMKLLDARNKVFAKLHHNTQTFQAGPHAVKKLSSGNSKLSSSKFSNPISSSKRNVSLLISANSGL
Briefly: micro-array, phage-presented peptide on printed CK. The method, then:
as §1, §2, §3

The target of experiment [4] is T5, I-TAC (CXCL11) (UniProt O14625 22-94).
T5 construct: Bought chemokine; also called I-TACK
T5 sequence (looked up): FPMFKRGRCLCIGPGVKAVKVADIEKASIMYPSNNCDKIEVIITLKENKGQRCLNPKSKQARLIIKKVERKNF
The experiment can be described thus: micro-array, phage-presented peptide on printed CK. The protocol: as §1, §2, §3

For another experiment, the target named is T6, IP-10 (CXCL10) (UniProt P02778 22-98).
T6 construct: Bought chemokine
T6 sequence (looked up): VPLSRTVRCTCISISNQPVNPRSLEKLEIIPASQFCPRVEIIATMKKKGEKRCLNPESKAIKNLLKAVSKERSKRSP
Briefly: micro-array, phage-presented peptide on printed CK. The method, then:
as §1, §2, §3

Experiment [5] has as its target T7, SDF-1β (CXCL12) (UniProt P48061 22-93).
T7 construct: Beta isoform of CXCL12; also called SDFβ
The experiment can be described thus: micro-array, phage-presented peptide on printed CK. The method, then:
as §1, §2, §3

The next experiment has as its target T8, CTAC (CCL27) (UniProt Q9Y4X3 25-112).
T8 construct: Bought chemokine
T8 sequence (looked up): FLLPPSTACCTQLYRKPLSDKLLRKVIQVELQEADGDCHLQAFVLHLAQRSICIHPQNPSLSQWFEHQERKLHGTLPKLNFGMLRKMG
Briefly: micro-array, phage-presented peptide on printed CK. The method, then:
as §1, §2, §3

Experiment [6] concerns the target T9, SDF-1α (CXCL12) (UniProt P48061-2 22-89).
T9 construct: Alpha isoform of CXCL12; also called SDFα
Briefly: micro-array, phage-presented peptide on printed CK. The method, then: as §1, §2, §3

Experiment [7] has as its target T1, Eotaxin 3 (CCL26). The experiment can be described thus: micro-array, biotinylated peptide on printed CK.
Experiment [8] has as its target T2, BCA-1 (CXCL13). The experiment can be described thus: micro-array, biotinylated peptide on printed CK.
In a further experiment the target is T10, Eotaxin (CCL11) (UniProt P51671 24-97).
T10 construct: Bought chemokine
The experiment can be described thus: micro-array, biotinylated peptide on printed CK.

The next experiment addresses T11, GRO-β (CXCL2) (UniProt P19875 35-107).
T11 construct: Bought chemokine
T11 sequence (looked up): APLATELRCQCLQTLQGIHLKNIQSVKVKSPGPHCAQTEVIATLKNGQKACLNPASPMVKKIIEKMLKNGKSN
The experiment can be described thus: micro-array, biotinylated peptide on printed CK.

The target in experiment [9] is T4, TECK (CCL25). Briefly: micro-array, biotinylated peptide on printed CK.
Experiment [10] deals with T5, I-TAC (CXCL11). The experiment can be described thus: micro-array, biotinylated peptide on printed CK.
The next experiment addresses T12, Lymphotactin (XCL-1) (UniProt P47992 23-114, limits assumed).
T12 construct: Bought chemokine
T12 sequence (looked up): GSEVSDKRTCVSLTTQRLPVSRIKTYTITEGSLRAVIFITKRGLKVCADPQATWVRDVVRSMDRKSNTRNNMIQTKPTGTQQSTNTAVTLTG
The experiment can be described thus: micro-array, biotinylated peptide on printed CK.

The target in experiment [11] is T7, SDF-1β (CXCL12). The experiment can be described thus: micro-array, biotinylated peptide on printed CK.
The next experiment has as its target T13, I-309 (CCL1) (UniProt P22362 23-96, limits assumed).
T13 construct: Bought chemokine
T13 sequence (looked up): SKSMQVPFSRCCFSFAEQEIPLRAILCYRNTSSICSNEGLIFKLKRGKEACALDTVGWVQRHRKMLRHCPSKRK
Briefly: micro-array, biotinylated peptide on printed CK.

A further experiment has as its target T14, Eotaxin 2 (CCL24) (UniProt O00175 27-104, limits assumed).
T14 construct: Bought chemokine
T14 sequence (looked up): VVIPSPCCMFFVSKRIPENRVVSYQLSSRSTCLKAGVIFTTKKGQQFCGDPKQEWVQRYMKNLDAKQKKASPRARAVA
The experiment can be described thus: micro-array, biotinylated peptide on printed CK.

The target of a further experiment is T15, MCP-1 (CCL2) (UniProt P13500 24-99).
T15 construct: Bought chemokine
Briefly: micro-array, biotinylated peptide on printed CK.

The target in experiment [12] is T9, SDF-1α (CXCL12). Briefly: micro-array, biotinylated peptide on printed CK.

Ends that are not written are not given here. * marks the point of attachment. Biotin = O=C1N[C@H]2[C@H](CS[C@H]2CCCCC(=O)*)N1

T7 sequence (P48061 22-93 limits assumed): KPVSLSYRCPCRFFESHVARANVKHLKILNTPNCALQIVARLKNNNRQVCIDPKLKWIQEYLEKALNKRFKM
T9 sequence (P48061 22-89 limits assumed): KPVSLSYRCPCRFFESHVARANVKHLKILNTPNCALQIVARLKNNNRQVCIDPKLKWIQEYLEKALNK
T10 sequence (P51671 24-97 limits assumed): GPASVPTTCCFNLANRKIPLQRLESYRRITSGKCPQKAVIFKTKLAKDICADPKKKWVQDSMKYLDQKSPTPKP
T15 sequence (P13500 24-99 limits assumed): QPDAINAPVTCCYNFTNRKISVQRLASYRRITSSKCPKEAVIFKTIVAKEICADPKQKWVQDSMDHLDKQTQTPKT

Regarding NAMCK [Phage-Presented Peptide 8.11 (Ph-p8.11)], the “Relative Fluorescence Units (RFU)” value in the experiment with Eotaxin 3 (CCL26) [1], with I-TAC (CXCL11) [4] and with IP-10 (CXCL10) was above 10000 RFU throughout. Further, the binding result in the experiment with BCA-1 (CXCL13) [2], in the experiment with Exodus-2 (CCL21), with TECK (CCL25) [3], with SDF-1β (CXCL12) [5], in the experiment with CTAC (CCL27) and with SDF-1α (CXCL12) [6] was “binds” throughout.

As for Biotin-FFGLNNC [Chemokine Binding Peptide 10 (CBP10)], the binding result with Eotaxin 3 (CCL26) [7], with BCA-1 (CXCL13) [8], in the experiment with Eotaxin (CCL11), with GRO-β (CXCL2), with TECK (CCL25) [9] and with I-TAC (CXCL11) [10] was “binds” each time. In addition, the binding result with Lymphotactin (XCL-1), with SDF-1β (CXCL12) [11], with I-309 (CCL1), with Eotaxin 2 (CCL24) and in the experiment with SDF-1α (CXCL12) [12] was “binds” each time. Further, the “Relative Fluorescence Units (RFU)” value with MCP-1 (CCL2) was above 600 RFU.
